Reference: a protein production outcome set (Wang et al. 2014)

Assay: label from the status in PepcDB records

Question: For “MLQTIKRADSAVSIIGAGIAGAWQALLFAQAGHAVTLHERGDAAMTDSTSHWAGGMLAPWCEAEVAEPIISRLGQRSLDIWRRELPDTPFNGSLVVAHPRERNDFERFARMTEEHRRLDAASLAELEPSLEGRFRDALFFPTEGHVEPRRVLPKLHERIRAAGGTIKFSSDVSAADLDGIVIDCRGLSARDEQPDLRGVKGEMILIETSEVQLARPVRLIHPRWPLYVIPREDNLFMLGATSIEAEDTGVSVRSALELLGAAYTVHPAFGEARIVEFGSGLRPAFPDNLPRIGIRGGRITVNGLYRHGFLIAPALAELTLQYVQRGQIDNEVMQCG”, which protein production is on record?
Answer: failed

Question: Which protein production does the source give for “MLQTLYTIILYLIQPLIWIRLWLRGRKAPAYRRRWGERYGFCAEKVKPDGIMLHSVSVGETLAAIPLVRALRHRYPNLPITVTTMTPTGSERVRSAFGDTVYHVYLPYDLPCALKRFFDQVRPKIVIIMETELWPNLIAELHKREIPLVIANARLSERSAAGYKKIGKLMRHILQRITLVAAQNQEDGNRFIALGLKRSSLKVTGSLKFDISVTPELAARAITLRRQWAPHRPVWIATSTHEGEEAIVLAAHRRLLATYPDLLLILVPRHPERFSTTQALAESMGFNYTLRSSGEQPSANTQVVIGDTMGELMLLYGIADLAFVGGSLVERGGHNPLEAAAHAIPVLMGPHTFNFKDICNKLDQADGLITVTDADSLGKEVGKLLADEDYRLYYGRHAVEVLHQNQGALQMLLTLLEPYLPQRTQLEHHHHHH” here?
Answer: not failed

Question: With “MLQYGQKSFLIVDDFTDFRTSTRSMLRELGVRDVDTADSGEQALRMCAQKRYDFILQDFHLGDGKKNGQQVLEDLIIDKHISHECVFIMVTAESSQAIVLSAIEHEPDAYLTKPFNRVGLAQRVEKLFQRKTLLKPILQALDRNRPAEVLAACAELCKKDPRLAPLCLRYRADALRNLNRFEELEKFLKAILASRPQPWVYAALGALMHKRGQNAQAQGVYEQALKAFPIMPGLYDGMAEVLVAQGDTRRAQNLLEEAVRLSPLSVRRQSTLGKLALENEDFESASKAFRHAVNQGQSSRYKDAENNLGLVQALMSKNAGFGLDARTRVEINTTLSEVAKENPEDQGLQVRARMMKAASLQQAGDPETAGKLTEQAIQRLDKMNQFFSVDSALTVAAQLQAMGQEAAAIGVLKNCVESYGDDPKVMEKVGKLTDDPSVLNAITEAVTLNRQGVRSYQGGQLGEALQLFRKALGLQPKNISIALNTAQALLRIGGDNPQPAIMQECRDALTSVAGIPASDNRYDRYRKLHIRVFGA” as the sequence, how does the protein production read?
Answer: failed

Question: With “MLRFKRKNFFKTINFKIALVFALLLLITLEIVGAIFVKQLESKNIQDFKQSVQIPTYIDNSLSEQLTVSSTRKANGQIKTILSNYNNTNVDEIQVVDSKGTIRGTSDVNDQSVVGQKTTDRNVKNAIYNNRTYTKSTYDTQNNGRYYVSIVPLYSSNSAGNSSQLVGVLYVRANMKSVYSTINNIMGIFVIASLAAMVLGLGIAIIIARAITRPIEEMKQQTQRIARGDYAGQVRVYSDDELGQLAKAINNLSIRVEESQESTEAERRRLDSVLSHMSDGVIATDRRGNITIINETASDFMDVTAEKAIGNSILDILKIRDDYSLRDLIENQDELMLDFSSNERDLILNAYFSLIQRESGFISGLVCVLHDVTEQQKIDNDRKQFVSNVSHELRTPLTSLRSYIEALSDGAWKDPEVAPGFLKVTQEETDRMIRMINELLSLSRMDSGTTRVDMELVNINEMFNYVLDRFDMILKKDDNPAKYYTIKREFTKRDLWVEIDTDKFTQVLDNIMNNAIKYSPDGGVVTCRLLETHNQVIISISDQGLGIPRADLGHVFDRFFRVDKARSRAQGGTGLGLAISKEVVQMLGGRIWVDSVEGKGSTFYISLPYEPYEEEDLWDDDSQA” as the sequence, how does the protein production read?
Answer: failed

Question: Which protein production does the source give for “MLRIYAPASSANISVGFDTLGAAISPIDGSLLGDVVQIESISTGFELESAGYFVRKLPKEPQKNIVYQAYVLFSEQLKLRGANVKPLRLTLEKNMPIGSGLGSSACSIVAALVALNQFHNEPFSKMELLEMMGELEGRISGSIHYDNVAPCYLGGVQFMVQS” here?
Answer: failed

Question: With “MLRMKKFLVVFFLVQSIFVFAQQSKKVESALKTFNSGKIDDGIKKMEAATQEDPSEDNWDLLVQMYKYRYEYAEQQQEDALTLLLLQSLGGSKAKIKKYTSPSVCYRDLIEKSKQAELNSRSTTASMVLRAYLVDYYPDTAVADTAKKEFNSAEKYFSEKDYPNAKLHYQNACKLDPSYYKALIYLGDTHWHMKKMDSAIYYFKQGIQMHGDLLEPRKYLVDALRDSKQYDEAIQESINAITVYPDESMFEKVESLYAKTGRTFDRHWIKRGCNVNTYAGTQLVTTNETWKAYQQARGEIKTYCDTNGVIVKSNSLTKAHYMEVYSWEKMLASNLVVPQELAFAKKMADEGYLDCYVFISLYHYDEYDQFIDFAKNNKERIRTYITKYLIQ” as the sequence, how does the protein production read?
Answer: failed

Question: For “MLSARTMKEVVYWSPKKVADWLLENAMPEYCEPLEHFTGQDLINLTQEDFKKPPLYRVSSDNGQRLLDMIETLKMEHHMEAHKN”, which protein production is on record?
Answer: not failed

Question: For “MLSFCPSCNNMLLITSGDSGVYTLACRSCPYEFPIEGIEIYDRKKLPRKEVDDVLGGGWDNVDQTKTQCPNYDTCGGESAYFFQLQIRSADEPMTTFYKCVNCGHRWKEN”, which protein production is on record?
Answer: failed

Question: With “MLSIMRRPIAALAVLLAAAVSIPAQAQFSDSYKFLEAVRKKEGDKVTEALNEPGTQIVNTKDYTTGQTGLHIVVARRDLVWVQFLVAKGANVNARDNRGVTPLVLAADIGFIEGVDELIRSGARVDEANNTGETPLISAVHRRDLALVRMLIKAGANPDRPDNSGRSARDYAMLEGKGSPLLGEIEKATKDAKAAGPQKTYGPSF” as the sequence, how does the protein production read?
Answer: failed

Question: Which protein production does the source give for “MLSKFLLFSARLSTTKILASLIIIMILATGLYQWLIHTPAFSPQVSAVSTTTENDFSLTDWTINLVDKLNWQQGGSSTFFNAGLLFVFLSLATSVGLPRQIAALVAGINLGAFIGIIVATLAATLGCFITFSVARYLLSDCITRKYPSKLAQLSAFLGEQTFLKAIVIRILPLGSNFITNIIAGVSKVSMPAYVSGSFVGFIPQMVIFSLAGSGIRLGAQNELIASATLFVIALILTTYLVKKHKAKTKN” here?
Answer: failed

Question: With “MLSKVIAQANIDHAEKWFERADKIVIVTHVSPDGDAIGSSLGLWHFLESQEKTVNVIVPNAFPDFLRWMPGAKDIIRYDKYTEFANKLLNEADVICCLDFNALSRIDAMADAVAQSPARKMMIDHHLNPEAFCRIIISHPEISSTSELVFRLICRLGYFEDITKEGAECIYTGMMTDTGGFTYNSNDREIYFIISELLSKGIDKDEIYRKVYNTYSEGRLRLMGYVLYDKMQVFPQFNSALVWLTKEEQSKFQYVKGDTEGFVNIPLSIKNIIFSVFLREDTEKNMIKVSLRSVGAFPCNKVAAEFFNGGGHLNASGGEFYGTMDEAIDLFKQALVKYEELLLAKK” as the sequence, how does the protein production read?
Answer: failed

Question: For “MLSLNQEVHGPKTSEVYGFVGSISIVVATVIFLIWGYVPDKFLESIGIYYYPSKYWAMAMPMYSMVTLLVALVFYIGLNFMSTSKPTSLNTLFDDYSREDVNFLPLMKNGEDRPIDPISDIDITRINDLMFDSHLAK”, which protein production is on record?
Answer: failed

Question: For “MLSRLFLLFALVPFLELYLLVQVGTVIGAAPTILLVILTAVVGAWLARTQGLGVMARVQNDLARGIMPGQALIDGFCILLAGLLLLTPGFLTDVVGLLLLLPPFRALLASRLQRHFAVRYASSGTTAEGGHFIVYGSSGPAAHEEPRHAVVIDTQPIDSSSAATGLADDTKPLGDAQPSGDGRPRS”, which protein production is on record?
Answer: failed

Question: For “MLSRLSLLSNSRAFQQARWRIYRLKVSPTVHASQYHILSGRKLAQSIREKANDEIQAIKLKHPNFKPTLKIIQVGARPDSSTYVRMKLKASKDSNVDCIIEKLPAEITEVELLKKISDINDDDSIHGLLIQLPLPRHLDETTITNAVDFKKDVDGFHRYNAGELAKKGGKPYFIPCTPYGCMKLLEEAHVKLDGKNAVVLGRSSIVGNPIASLLKNANATVTVCHSHTRNIAEVVSQADIVIAACGIPQYVKSDWIKEGAVVIDVGINYVPDISKKSGQKLVGDVDFDSVKEKTSYITPVPGGVGPMTVAMLVSNVLLAAKRQFVESEKLPVIKPLPLHLESPVPSDIDISRAQSPKHIKQVAEELGIHSHELELYGHYKAKISPNIFKRLESRENGKYVLVAGITPTPLGEGKSTTTMGLVQALSAHLGKPSIANVRQPSLGPTLGVKGGAAGGGYAQVIPMDEFNLHLTGDIHAISAANNLLAAAIDTRMFHEATQKNDSTFYKRLVPRKKGIRKFTPSMQRRLKRLDIEKEDPDALTPEEVKRFARLNINPDTITIRRVVDINDRMLRQITIGEAATEKGFTRTTGFDITVASELMAILALSKSLHEMKERIGRMVIGADYDNKPVTVEDIGCTGALTALLRDAIKPNLMQTLEGTPVMVHAGPFANISIGASSVIADLMALKLVGSEKNPLNDKNIHEPGYVVTEAGFDFAMGGERFFDIKCRSSGLVPDAVVLVATVRALKSHGGAPNVKPGQSLPKEYTEENIDFVAKGVSNLVKQIENIKTFGIPVVVAINRFETDSQAEIEVIKKAALNAGASHAVTSNHWMEGGKGAVELAHAVVDATKEPKNFNFLYDVNSSIEDKLTSIVQKMYGGAKIEVSPEAQKKIDTYKKQGFGNLPICIAKTQYSLSHDPSLKGVPRGFTFPIRDVRASIGAGYLYALAAEIQTIPGLSTYAGYMAVEVDDDGEIEGLF”, which protein production is on record?
Answer: failed

Question: For “MLSVIIITKNEEANIRRCLESVHFADEIIVLDSGSTDNTLAIAREYTDKVFSTDWQGYGIQKDRALQKAQGDWVLNLDADESVSSELRQEILQAISSDTADAFRIPIQMIFYNQVLKYSGSPKRHIRLFKRENASYSKDIVHEKVLIPVNARVGKLKKPIWHHSFSDVHHVLYKLNKYSSYSAKIRIESNEKVGLVKTFFSALWMFVRCLFLQKGFLDGRAGFLFAVFGAQGAFYRGVKQIYKDRDINKLPSVNHIKEELEHHHHHH”, which protein production is on record?
Answer: not failed

Question: Which protein production does the source give for “MLSYCPNIFYLIMTTLCLVIQTGCSPAQDHVHSQLHSSISVTDRDGNTVQLNQPARRIVCLFEASVDDLYMLGAGKSIIGIPAKIYTSSDLYRAYSILDRRIYEKKIATPSNWEASTNIESVVALQPDLVIVSAGQKDVIQILNRMHIPVYSVLSENLQQTRKELLDLGKLTGKSQRASELVEFIDHEIQAIQQRNHTQSDQKTIYYGWSGGRIFSTSGRDSMPNTVMTLAGAHNVVNTAIDQPNVNPEKLIEWNPDVILLWNTNPKQIYQRSELKTLTAVKQQHVFNLSPSFLFNPHTPKILLAANQLNHWVYPAPHSDQAATQDKLRILTQFYGKTAAEQLIQYANDVTKE” here?
Answer: failed

Question: For “MLTAAVLLPLVGALVAWIVPDNRLRPLVLPAVAVPHFLLTLALLAWTPPPSPQGWIFLDPLGKIVLLCISTLFLICAVYAVGYLAYRRDRSNRVLCMGLLACLSAMTLVTASQHLGLLWVAVETTTVTMAPLIYFNRNARSIEATWKYLLICSVGIALALLGLFFLAYATLVAHRDATLLLGPILASARELNPGWLHASFIFMLVGFGSKMGIAPLHSWKPDAYGEAPGLVGALLAGGLVNCAFLAILRVYQISLASGGEYLFFQKALLTMGLISMGLAAVFMARQADFKRMLAYSSVEHVGILAVALGLGKGALFGALFHLLNNGLTKGVLFLSSGNIHRSFNSKSTEVVRGALARLPWSAGLFLAGFIAITGSPPFSPFVSEFSIVSSAFVEGRYLVGGLFLFFLAVIFIGMALTVLPLVMGVPPADAERTDYRDRLLTVGPPLALLGLILMLGVWLPEPLLRLLGEGAALLEAKP”, which protein production is on record?
Answer: failed

Question: With “MLTEMHIAVIGGDARQLEVIRKLVELDAKLSLIGFDQLDHGFTGAAKESIQNLDFTSVDAIILPVAGTNAKGEVDTIFSNEKVSITKEQIENTPEHFTIYSGIGTPYLENLVSTTNRKLIKLFDRDDVAIYNSIPTVEGTLMMVIQHTDYTIHGSNVMVLGFGRTGMSVARAFQSLGAHVKVGARRSEHIARITEMMFSPFHMQDIEKEVGDIDIVINTIPHLVVTANVISKMPAHTLVIDLASKPGGTDFRYAEKRGVKALLAPGLPGIVAPKTAGQILANVLSQLLAEDVIARKENGE” as the sequence, how does the protein production read?
Answer: failed

Question: Which protein production does the source give for “MLTFEKVLEIFADYLTADETIEVYISRHGCVRVEFDQDFHYCSGEVCHTPKELFNLLADDYRTYVEIELTKGRRELTEDDEREADALCKRHLERWREKLE” here?
Answer: failed
